This is an account of results in US20190016810A1, “METHODS FOR TREATING OR PREVENTING GRAFT-VERSUS-HOST DISEASE INVOLVING THE ADMINISTRATION OF ANTI-CCR5 RECEPTOR AGENTS” (CytoDyn Inc., priority 2017, published 2019).

For experiment [1], the target named is T1, CCR5 (Homo sapiens, UniProt P51681). The note with it: activated human T cells, cited from earlier work.
The conditions of experiment [2]: in vivo; cited from earlier work.
In experiment [3] the test system is engrafted human cells (CD45+, CD3+). Briefly: Flow cytometry analysis of engrafted human cells in peripheral blood, spleen and bone marrow of NSG mice. The format is in vivo. The note with it: for CD45+ cells in peripheral blood at the time of euthanasia: control 64%. The procedure: Peripheral blood (PB), bone marrow (BM), and spleen (SPL) samples were analyzed by flow cytometry. Splenocytes were passed through a […] strainer. Erythrocytes were lysed with ammonium chloride. Cells were washed twice with PBS and stained for 15 min at 4 deg C. in PBS/0.5 mM EDTA/0.5% BSA with the following antibodies: anti-human-CD3-FITC (clone UCHT1, IM1281U), anti-human-CD45-PC7 (clone J.33, 1M3548U), Beckman/Coulter. Samples were analyzed on a Cytomics FC500 Flow Analyzer (Beckman/Coulter).
(In general: A flow cytometer gives signals particle by particle.)

Experiment [4] concerns the target T1, CCR5. The note with it: CD4+ T cells, cited from earlier work.
Experiment [5] relates to HIV-1. The note with it: at concentrations that do not affect CCR5 chemokine receptor activity; in vitro and hu-PBL-SCID mouse model; cited from earlier work.
Experiment [6] has as its target T1, CCR5. Set-up: host or cells: CHO-K1. The note with it: CHO-K1 cells, cited from earlier work.
Experiment [7] deals with xeno-GVHD in NSG mice. The experiment is described as follows: xeno-GVHD in NSG mice engrafted with human bone marrow cells: physical signs, weight, survival.
Procedure: Animal experiments were conducted in accordance with the ethical standards and according to national and international guidelines and were approved by the Cleveland Clinic Institutional Animal Care and Use Committee. Male NSG mice, NOD.Cg-Prkdc^scidIl2ry^tm1wjl/SzJ (NOD-scid IL2ry^null, NSG) mice were obtained from the Jackson Laboratory (Bar Harbor, Me., USA), and athymic nude (nu/nu) (Taconic, Hudson, N.Y.) 6-8 wk old were used. Mice were housed in a barrier facility in cages with microisolator lids, autoclaved bedding, and HEPA-filtered air, and maintained under 12:12 light/dark cycles, controlled temperature and humidity. […] Conditioning regimen: Mice received 2.25 Gy total body irradiation via a 137Cs source (Shepherd, Los Angeles Calif.).
Following gamma irradiation (24 h later) mice were engrafted with human BM cells. De-identified human donor cells were obtained by back-flushing filter packs utilized by the Cleveland Clinic BMT program. Fresh (non-frozen) leukocytes were purified by Ficoll-Hypaque gradient centrifugation, washed in phosphate buffered saline (PBS), assessed for viability (ViCell, Beckman Coulter, Brea, Calif.). Human BM leukocytes were injected into the lateral tail vein (10^7 cells/mouse). Mice were monitored for clinical symptoms of GVHD (body posture, activity, fur and skin condition, weight loss) two times/wk. Peripheral blood was monitored weekly for engraftment utilizing saphenous vein venipuncture (50 mL) collected in K-EDTA tubes.
Mice were randomized into control and treatment groups by body weight. PRO 140 was administered on different doses (0.2-2.0 mg/kg) and schedules. The route was always intraperitoneal (i.p.). Control mice received normal human IgG (Sigma Aldrich, St. Louis, Mo.).
Starting with the human dose of PRO 140=5.8 mg/kg×12 (man-to-mouse conversion factor)=69.6 mg/kg mouse dose; average mouse=0.025 kg, therefore dose is 69.6 mg/kg×0.025 kg=1.74 mg (mouse single dose). This was rounded up to 2.0 mg and designated as the “high dose”. A “low dose” (0.2 mg) was also tested. IgG derived from human serum (>95% SDS-PAGE, Sigma, I4506) was used as a non-specific control antibody.
Statistical analysis was performed using GraphPad Prism (GraphPad Software, La Jolla, Calif.). All measures of variance were depicted as standard error of the mean (SEM). Survival was analyzed by the Kaplan-Meier method and Mantel-Cox log-rank test. For other data, two-sided unpaired Students t-test was used.
Experiment [8] addresses T1, CCR5. Briefly: Tyrosine kinase phosphorylation downstream of CCR5 receptor signaling in T cells in vitro. The format is cell-based. Set-up: tyrosine kinase phosphorylation downstream of CCR5 receptor signaling in T cells in vitro; endogenous in cells; host or cells: T cells. The text has this:
Thus, it is shown that PRO 140's activity as a CCL5 competitive binding inhibitor has a mixed impact on CCL5's ability to participate in downstream activity conventionally associated with the CCR5/CCL5 axis. Further elucidation of the role of PRO 140 and its immunomodulatory effects is the subject of continued investigation.

“Also recorded” adds a separate entry of the source.

T1 sequence (P51681 whole entry): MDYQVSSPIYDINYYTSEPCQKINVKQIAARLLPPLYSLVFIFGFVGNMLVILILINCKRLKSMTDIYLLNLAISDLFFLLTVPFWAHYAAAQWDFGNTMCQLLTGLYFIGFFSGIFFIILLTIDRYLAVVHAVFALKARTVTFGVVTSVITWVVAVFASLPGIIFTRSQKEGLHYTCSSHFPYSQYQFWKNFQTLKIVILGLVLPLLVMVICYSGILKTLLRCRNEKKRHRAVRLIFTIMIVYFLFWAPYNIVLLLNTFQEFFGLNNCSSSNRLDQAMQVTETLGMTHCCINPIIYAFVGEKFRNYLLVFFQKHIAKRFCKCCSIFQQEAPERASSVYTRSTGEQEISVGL

With `Cc1nnc(C(C)C)n1C1C[C@H]2CC[C@@H](C1)N2CC[C@H](NC(=O)C1CCC(F)(F)CC1)c1ccccc1` (stereo in doubt) [maraviroc], the “production of TNF-α and IFN-γ” value in experiment [1] (high doses) was “tends to decrease production of TNF-α and IFN-γ”. In experiment [1], the “CCR5 and CCR2 internalization induced by CCL5 and CCL2” value is “can block CCR5 and CCR2 internalization processes”; the “T cell chemotactic activities toward cognate ligands” value is given as “inhibit T cell chemotactic activities”. For the same molecule, in experiment [2], the “incidence of gastrointestinal and liver GVHD” value was “dramatically decreases the incidence of gastrointestinal and liver GVHD”.

B1: PRO 140: humanized monoclonal antibody to CCR5, humanized version of the murine mAb PA14; competitive inhibitor of CCL5 binding to CCR5 receptor (antibody, chains of the INN, looked up, V domains shown)
VH: EVQLVESGGGLVKPGGSLRLSCAASGYTFSNYWIGWVRQAPGKGLEWIGDIYPGGNYIRNNEKFKDKTTLSADTSKNTAYLQMNSLKTEDTAVYYCGSSFGSNYVFAWFTYWGQGTLVTVSS
VL: DIVMTQSPLSLPVTPGEPASISCRSSQRLLSSYGHTYLHWYLQKPGQSPQLLIYEVSNRFSGVPDRFSGSGSGTDFTLKISRVEAEDVGVYYCSQSTHVPLTFGQGTKVEIK
For B1, in experiment [3] (bone marrow at the time of euthanasia), the effect on engraftment entry is listed as “did not inhibit engraftment; also recorded: did not negatively affect engraftment”. The “CD45+ cells in bone marrow versus control at the time of euthanasia” value in experiment [3] (compared with control IgG mice) is “no differences”. The “CD45+ cells in spleen at the time of euthanasia” value in experiment [3] (control 58-59%, p<0.05) was 41%. In addition, the “CD45+ cells in peripheral blood at the time of euthanasia” value is on record as 46% in experiment [3] (p<0.05) and 45% in experiment [3] (p<0.05, listed as Pro 140). The “mouse hematopoietic cells (mouse CD45) in bone marrow” value in experiment [3] (high dose cohort, Day 75) was 28%. In addition, the “mouse hematopoietic cells (mouse CD45) in peripheral blood” value in experiment [3] (high dose cohort, Day 75) stood at 14.9%. Further, in experiment [3] (high dose cohort, FIG. 6 BM panel E2 quadrant, control 40.2%), the “mature T-cells (CD45/CD3) in bone marrow at 54 days” value is reported as 26.4%. Moreover, in experiment [3] (high dose cohort, FIG. 6 PB panel E2 quadrant, control 63.2%), the “mature T-cells (CD45/CD3) in peripheral blood at 54 days” value amounted to 49.8%. Besides, the “human CD45+ cells in peripheral blood versus control at day 50” value in experiment [3] (high dose, compared with control IgG mice) was “significantly lower”. For the same molecule, the “human CD45+ cells in peripheral circulation at 50 days” value in experiment [3] (high dose, control 62%, p=0.034) is listed as 43%. Further, the “delay until the same percentage of CD45+ engraftment as control” value in experiment [3] (low dose (0.2 mg), peripheral blood, P<0.01) is “approximately 20 days”. For the same molecule, the “divergence in engraftment from control, start” value in experiment [3] (low dose cohort (0.2 mg)) is given as 15 days. The “effect on cAMP levels, added alone” value in experiment [4] (PRO 140 alone) is reported as “does not affect cAMP levels”. Also, the “effect on cAMP levels, administered with CCL5” value in experiment [4] (with CCL5) is recorded as “does diminish the effect of CCL5 on cAMP levels”. Also, the “HIV-1 entry and replication” value in experiment [5] is “potently inhibits HIV-1 entry and replication”. Besides, the “effect on chemotaxis, alone” value in experiment [6] (PRO 140 alone) was “does not affect chemotaxis”. Also, in experiment [6] (with CCL5), the “effect on CCL5-induced chemotaxis” value was “does reduce CCL5-induced chemotaxis”. The “survival (Kaplan-Meier), low dose” value in experiment [7] (PRO 140 0.2 mg i.p., BM from donor, control animals all dead by 31 days) is on record as ≤ 54 days. Moreover, the “start of physical signs of GvHD and weight loss, low dose” value in experiment [7] (PRO 140 0.2 mg i.p., control mice starting at day 20) lay in the range of 25 to 28 days. Besides, in experiment [7] (PRO 140 2.0 mg i.p. twice/wk started day 1, about 20 days after engraftment), the “mean weight at about 20 days” value was “about 23.0 gm”. For the same molecule, the “mean weight at about 52 days” value in experiment [7] (PRO 140 2.0 mg i.p. twice/wk started day 1, about 52 days after engraftment) was “about 23.6 gm”. Besides, the “survival (Kaplan-Meier), high dose” value in experiment [7] (PRO 140 2.0 mg i.p. twice/wk started day 1, sacrificed at 70 days, control IgG animals all dead by 56 days) is given as ≥ 70 days. Also, the “physical signs / symptoms of GVHD” value in experiment [7] (high dose (2.0 mg i.p. twice/wk), 70-day study period) is on record as “did not exhibit any symptoms associated with GVHD; also recorded: no physical signs of GVHD”. Also, the weight course result in experiment [7] (high dose (2.0 mg i.p. twice/wk), control mice lost weight) is reported as “gained weight; also recorded: continued to gain weight”. For the same molecule, the survival in experiment [7] (past 70 days, xeno-transplant animal model, NSG mice upon HSC engraftment) is 100%. The “effect on tyrosine kinase phosphorylation, alone” value in experiment [8] (PRO 140 alone) is recorded as “does not affect tyrosine kinase phosphorylation”. Also, the “effect on phosphorylation of tyrosine kinases by CCL5” value in experiment [8] (with CCL5) is “does not inhibit phosphorylation of such kinases by CCL5”.
